Test results: patent US20140072613A1, “Compositions and Methods for Treating Cutaneous Scarring” (priority 2012, published 2014)

Assays:
Assay in all cases: biochemical
Assay type in all cases: biochemical
[1] = biological target: 266 human kinases (Homo sapiens, UniProt P54764); settings: EphA4(h); 100 μM
In short: (§1)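 Inhibition was judged from reduced transfer of labelled phosphate from ATP to a positively charged substrate, which was captured on a negatively charged membrane and quantified by scintillation counting against a 100% activity control.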

[2] = biological target: T1, 266 human kinases (Homo sapiens, UniProt P51956); settings: NEK3(h); 100 μM
T1 sequence (P51956 1-506): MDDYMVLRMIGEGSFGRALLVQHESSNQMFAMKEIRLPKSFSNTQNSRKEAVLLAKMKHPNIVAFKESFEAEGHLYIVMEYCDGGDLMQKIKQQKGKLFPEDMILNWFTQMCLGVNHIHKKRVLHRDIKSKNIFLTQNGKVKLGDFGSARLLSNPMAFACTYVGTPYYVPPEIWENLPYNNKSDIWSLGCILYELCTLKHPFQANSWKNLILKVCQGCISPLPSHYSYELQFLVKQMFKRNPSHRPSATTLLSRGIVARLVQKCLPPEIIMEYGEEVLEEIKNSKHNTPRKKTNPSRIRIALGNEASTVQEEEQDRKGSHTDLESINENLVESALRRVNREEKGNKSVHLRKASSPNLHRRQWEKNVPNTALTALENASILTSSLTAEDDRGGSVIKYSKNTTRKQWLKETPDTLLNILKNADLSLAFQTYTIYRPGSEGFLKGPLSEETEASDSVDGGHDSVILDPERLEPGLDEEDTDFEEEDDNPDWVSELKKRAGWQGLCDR
In short: as §1

[3] = biological target: T2, 266 human kinases (Homo sapiens, UniProt Q12866); settings: Mer(h); 100 μM
T2 sequence (Q12866 21-999): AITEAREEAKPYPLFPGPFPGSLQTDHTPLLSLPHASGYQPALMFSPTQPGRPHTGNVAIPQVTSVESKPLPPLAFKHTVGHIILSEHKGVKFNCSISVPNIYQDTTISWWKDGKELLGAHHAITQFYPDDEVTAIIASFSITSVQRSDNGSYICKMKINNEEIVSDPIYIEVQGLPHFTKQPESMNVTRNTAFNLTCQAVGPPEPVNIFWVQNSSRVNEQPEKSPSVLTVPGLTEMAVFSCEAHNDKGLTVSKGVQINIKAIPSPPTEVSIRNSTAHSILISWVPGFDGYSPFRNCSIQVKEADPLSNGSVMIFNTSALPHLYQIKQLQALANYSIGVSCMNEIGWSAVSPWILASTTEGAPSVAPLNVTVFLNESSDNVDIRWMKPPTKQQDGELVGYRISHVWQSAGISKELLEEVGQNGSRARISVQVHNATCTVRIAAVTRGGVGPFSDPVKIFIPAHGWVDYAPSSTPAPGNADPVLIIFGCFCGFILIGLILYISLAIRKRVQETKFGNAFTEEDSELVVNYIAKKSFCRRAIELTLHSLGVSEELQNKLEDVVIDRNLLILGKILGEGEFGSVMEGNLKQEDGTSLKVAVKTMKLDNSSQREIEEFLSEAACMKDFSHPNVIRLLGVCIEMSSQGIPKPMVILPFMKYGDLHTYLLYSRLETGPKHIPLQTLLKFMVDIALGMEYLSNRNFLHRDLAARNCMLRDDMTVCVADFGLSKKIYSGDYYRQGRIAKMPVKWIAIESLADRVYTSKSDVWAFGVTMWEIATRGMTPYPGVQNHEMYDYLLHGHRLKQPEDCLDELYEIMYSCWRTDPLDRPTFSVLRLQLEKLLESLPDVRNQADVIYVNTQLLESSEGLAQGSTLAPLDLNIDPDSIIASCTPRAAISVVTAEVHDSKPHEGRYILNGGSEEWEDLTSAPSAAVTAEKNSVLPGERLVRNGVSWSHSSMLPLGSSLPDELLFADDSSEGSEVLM
In short: as §1

[4] = biological target: 266 human kinases (Homo sapiens, UniProt P68400); settings: CK2(h); 100 μM
In short: as §1

[5] = biological target: 266 human kinases (Homo sapiens, UniProt Q96GD4); settings: Aurora-B(h); 100 μM
In short: as §1

[6] = biological target: 266 human kinases (Homo sapiens, UniProt Q92630); settings: DYRK2(h); 100 μM
In short: as §1

[7] = tested on: 266 human kinases; settings: for % activity: 100 μM; for off-target kinase inhibition: at 100 μM
In short: as §1

[8] = biological target: T3, 266 human kinases (Homo sapiens, UniProt P42680); settings: Tec(h)activated; 100 μM
T3 sequence (P42680 1-631): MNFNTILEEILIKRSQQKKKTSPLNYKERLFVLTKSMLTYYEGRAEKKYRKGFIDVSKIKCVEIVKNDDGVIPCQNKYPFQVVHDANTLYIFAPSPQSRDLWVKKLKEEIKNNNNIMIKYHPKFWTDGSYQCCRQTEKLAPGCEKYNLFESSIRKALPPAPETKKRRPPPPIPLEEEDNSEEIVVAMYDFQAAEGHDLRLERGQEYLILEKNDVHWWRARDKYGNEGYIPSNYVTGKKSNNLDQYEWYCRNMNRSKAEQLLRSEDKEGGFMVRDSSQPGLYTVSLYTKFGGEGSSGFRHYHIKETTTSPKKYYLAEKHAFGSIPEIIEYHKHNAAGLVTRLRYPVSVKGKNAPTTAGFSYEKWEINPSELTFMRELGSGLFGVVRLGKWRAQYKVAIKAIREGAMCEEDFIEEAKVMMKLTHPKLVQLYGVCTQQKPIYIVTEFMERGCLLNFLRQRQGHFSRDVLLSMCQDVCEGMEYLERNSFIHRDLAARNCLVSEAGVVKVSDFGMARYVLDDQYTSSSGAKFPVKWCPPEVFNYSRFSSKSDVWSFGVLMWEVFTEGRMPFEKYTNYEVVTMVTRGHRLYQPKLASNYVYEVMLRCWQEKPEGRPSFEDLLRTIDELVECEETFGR
In short: as §1

[9] = biological target: 266 human kinases (Homo sapiens, UniProt P54756); settings: EphA5(h); 100 μM
In short: as §1

Chain of 266 human kinases (Homo sapiens, UniProt P68400) (P68400 whole entry): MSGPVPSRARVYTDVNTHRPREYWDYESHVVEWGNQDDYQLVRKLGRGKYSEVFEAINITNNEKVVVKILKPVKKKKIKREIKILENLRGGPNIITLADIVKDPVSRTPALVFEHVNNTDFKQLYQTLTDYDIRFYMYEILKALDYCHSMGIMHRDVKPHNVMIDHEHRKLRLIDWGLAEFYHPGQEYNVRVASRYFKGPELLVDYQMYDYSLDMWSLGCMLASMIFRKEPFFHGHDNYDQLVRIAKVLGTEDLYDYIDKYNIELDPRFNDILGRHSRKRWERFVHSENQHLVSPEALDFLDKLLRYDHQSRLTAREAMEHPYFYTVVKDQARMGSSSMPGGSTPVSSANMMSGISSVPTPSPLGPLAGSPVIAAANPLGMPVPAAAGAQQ
Chain of 266 human kinases (Homo sapiens, UniProt Q92630) (Q92630 whole entry): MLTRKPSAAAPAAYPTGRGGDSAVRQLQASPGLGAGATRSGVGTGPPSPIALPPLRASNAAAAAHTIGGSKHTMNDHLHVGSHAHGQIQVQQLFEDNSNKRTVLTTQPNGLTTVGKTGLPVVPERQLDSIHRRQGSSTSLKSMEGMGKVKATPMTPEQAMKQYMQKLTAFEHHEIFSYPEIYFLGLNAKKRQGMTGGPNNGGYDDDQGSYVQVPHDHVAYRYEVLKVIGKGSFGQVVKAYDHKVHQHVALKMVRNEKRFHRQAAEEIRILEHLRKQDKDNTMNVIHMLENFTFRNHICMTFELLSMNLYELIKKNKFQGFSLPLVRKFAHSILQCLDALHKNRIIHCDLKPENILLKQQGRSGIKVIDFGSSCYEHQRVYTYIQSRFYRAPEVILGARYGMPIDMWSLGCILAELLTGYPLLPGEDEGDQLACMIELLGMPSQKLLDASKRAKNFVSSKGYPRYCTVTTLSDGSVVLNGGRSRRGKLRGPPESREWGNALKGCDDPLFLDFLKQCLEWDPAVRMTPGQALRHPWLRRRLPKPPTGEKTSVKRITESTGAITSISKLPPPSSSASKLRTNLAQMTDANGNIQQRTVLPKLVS
Chain of 266 human kinases (Homo sapiens, UniProt P54764) (P54764 20-986): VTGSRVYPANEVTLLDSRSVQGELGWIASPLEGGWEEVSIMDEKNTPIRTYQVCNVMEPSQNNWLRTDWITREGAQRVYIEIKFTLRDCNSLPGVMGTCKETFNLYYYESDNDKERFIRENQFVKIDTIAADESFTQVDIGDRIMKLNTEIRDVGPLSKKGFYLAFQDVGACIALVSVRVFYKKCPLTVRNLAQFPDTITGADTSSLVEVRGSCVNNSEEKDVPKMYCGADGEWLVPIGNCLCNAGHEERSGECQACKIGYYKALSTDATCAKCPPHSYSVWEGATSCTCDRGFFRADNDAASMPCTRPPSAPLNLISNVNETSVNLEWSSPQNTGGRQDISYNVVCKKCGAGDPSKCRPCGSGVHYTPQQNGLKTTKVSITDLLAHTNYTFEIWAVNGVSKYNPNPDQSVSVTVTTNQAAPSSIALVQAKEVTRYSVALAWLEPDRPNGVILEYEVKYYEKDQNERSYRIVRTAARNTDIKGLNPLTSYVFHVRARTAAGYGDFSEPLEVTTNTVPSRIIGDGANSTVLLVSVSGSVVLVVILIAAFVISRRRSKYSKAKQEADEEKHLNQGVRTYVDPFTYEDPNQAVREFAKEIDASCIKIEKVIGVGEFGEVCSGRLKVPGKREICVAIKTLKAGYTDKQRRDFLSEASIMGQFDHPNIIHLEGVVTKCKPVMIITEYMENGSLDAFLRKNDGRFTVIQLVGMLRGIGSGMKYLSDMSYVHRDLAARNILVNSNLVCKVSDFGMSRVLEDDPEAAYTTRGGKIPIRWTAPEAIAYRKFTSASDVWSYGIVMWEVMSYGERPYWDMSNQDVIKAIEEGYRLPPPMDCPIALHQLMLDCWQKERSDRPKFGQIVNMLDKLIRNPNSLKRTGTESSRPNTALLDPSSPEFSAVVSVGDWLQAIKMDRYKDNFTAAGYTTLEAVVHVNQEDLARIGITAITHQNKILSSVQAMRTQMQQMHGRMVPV
Chain of 266 human kinases (Homo sapiens, UniProt Q96GD4) (Q96GD4 whole entry): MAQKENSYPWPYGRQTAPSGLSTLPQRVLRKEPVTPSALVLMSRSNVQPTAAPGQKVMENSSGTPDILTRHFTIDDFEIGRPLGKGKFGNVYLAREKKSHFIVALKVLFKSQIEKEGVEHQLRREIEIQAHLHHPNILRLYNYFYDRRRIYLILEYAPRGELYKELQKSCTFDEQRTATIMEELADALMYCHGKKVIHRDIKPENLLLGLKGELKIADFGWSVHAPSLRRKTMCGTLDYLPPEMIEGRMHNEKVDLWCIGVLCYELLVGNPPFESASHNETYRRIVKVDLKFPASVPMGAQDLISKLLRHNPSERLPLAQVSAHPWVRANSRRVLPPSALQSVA
Chain of 266 human kinases (Homo sapiens, UniProt P54756) (P54756 25-1037): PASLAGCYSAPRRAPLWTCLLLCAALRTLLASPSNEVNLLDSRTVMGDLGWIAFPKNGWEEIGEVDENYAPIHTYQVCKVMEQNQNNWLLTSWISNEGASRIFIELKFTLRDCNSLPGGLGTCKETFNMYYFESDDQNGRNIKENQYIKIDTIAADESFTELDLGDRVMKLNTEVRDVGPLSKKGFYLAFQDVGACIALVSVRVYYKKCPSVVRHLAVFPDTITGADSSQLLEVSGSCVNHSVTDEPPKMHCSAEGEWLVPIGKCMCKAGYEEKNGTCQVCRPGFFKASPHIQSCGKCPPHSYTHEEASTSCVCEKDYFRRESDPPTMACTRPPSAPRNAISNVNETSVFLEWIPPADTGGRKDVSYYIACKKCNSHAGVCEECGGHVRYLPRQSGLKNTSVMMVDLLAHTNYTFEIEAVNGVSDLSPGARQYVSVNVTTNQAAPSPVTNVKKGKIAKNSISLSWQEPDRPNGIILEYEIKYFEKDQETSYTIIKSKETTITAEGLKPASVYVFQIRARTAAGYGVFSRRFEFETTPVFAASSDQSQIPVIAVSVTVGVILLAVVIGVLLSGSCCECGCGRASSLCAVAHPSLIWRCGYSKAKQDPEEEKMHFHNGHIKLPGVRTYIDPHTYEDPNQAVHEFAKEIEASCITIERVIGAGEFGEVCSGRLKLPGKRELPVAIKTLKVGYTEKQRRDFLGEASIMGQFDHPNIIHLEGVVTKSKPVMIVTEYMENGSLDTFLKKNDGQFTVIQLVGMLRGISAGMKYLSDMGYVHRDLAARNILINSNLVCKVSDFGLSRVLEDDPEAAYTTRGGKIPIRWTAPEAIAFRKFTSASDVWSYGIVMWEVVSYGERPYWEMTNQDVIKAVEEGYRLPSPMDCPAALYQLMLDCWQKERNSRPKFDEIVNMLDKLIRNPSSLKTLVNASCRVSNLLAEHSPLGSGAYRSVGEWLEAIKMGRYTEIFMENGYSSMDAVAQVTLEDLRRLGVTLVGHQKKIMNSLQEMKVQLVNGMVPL

Row | Sequence | % activity [1] [%] | % activity [2] [%] | % activity [3] [%] | % activity [4] [%] | % activity [5] [%] | % activity [6] [%] | % activity ([7]; PKCβII(h)) [%] | % activity ([7]; PKG1β(h)) [%] | off-target kinase inhibition [7] | % activity [8] [%] | % activity [9] [%] | % activity ([7]; MAPK1(h)) [%]
1 | HRRIKAWLKKIKALARQLGVAA (mammal) [MMI-0500] | 48 | 20 | 17 | 93 | 5 | 127 | 3 | 24 | very limited off-target kinase inhibition | 33 | 42 | 
2 | YARAAARQARAKALNRQLGVA (mammal) [MMI-0200] | 127 | 100 | 90 | 83 | 166 | 142 | 100 | 57 | very limited off-target kinase inhibition | 77 | 123 | 97
